Here are results for two molecules from patent US20210238262A1 (published 2021).

Experiment [1] deals with MZ2. As to the kind of experiment: BLI; Fab. Background: BLI is a label-free optical method that tracks binding on a fibre tip over time.
Experiment [2] concerns the target T1, Recombinant DENV-2 sE (1-396) from strain 16681-PDK53 with C-terminal AviTag and poly-histidine tags (UniProt P29991 281-676, biotinylated on the AviTag for BLI).
T1 chain: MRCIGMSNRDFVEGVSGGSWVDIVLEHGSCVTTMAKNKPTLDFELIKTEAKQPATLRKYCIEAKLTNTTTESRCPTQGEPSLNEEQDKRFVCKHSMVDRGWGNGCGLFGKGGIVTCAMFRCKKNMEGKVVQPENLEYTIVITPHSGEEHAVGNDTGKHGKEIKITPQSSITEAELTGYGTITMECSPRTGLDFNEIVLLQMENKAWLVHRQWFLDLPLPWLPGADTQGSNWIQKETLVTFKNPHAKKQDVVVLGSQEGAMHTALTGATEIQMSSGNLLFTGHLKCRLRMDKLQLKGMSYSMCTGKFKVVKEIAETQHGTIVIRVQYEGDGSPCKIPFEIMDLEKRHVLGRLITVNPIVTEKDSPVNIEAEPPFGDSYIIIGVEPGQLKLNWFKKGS
Nature of the experiment: BLI; Fab.

B1: DENV-2 E (other)
chain: T1 chain
modifications: biotinylated on the AviTag for BLI
One may read the Kd as the free concentration of one partner at which half of the binding sites on the other are occupied at equilibrium, for simple one-to-one binding. In turn, B1 returned a dissociation constant Kd in experiment [1] of 0.4 nM.

B2: MZ4 Fab (Fab, V domains shown)
VH: QVHLQESGPGLVRPSETLSLTCTVSDGSISSYYWSWIRQPPGKGLEWIGSIYYTGSTNYNPSLKSRVTMSVDTSKNQFSLRLNSVTAADTAMYYCAGLDRYSWNEGGDHWGQGILVSVSS
VL: QPVLTQPPSASGTPGQRVSISCSGSRSNLGKNTVNWYQQLPGTAPKLLIYNHSRRPSGVPERFSGSKSGTSASLAISGLQSEDEADYFCAAWDDSLNGLYVFGTGTKVTVLR
For the molecule B2, the Kd in experiment [2] was determined as 1 nM.
